This note sets out measurements from patent publication US20260043817A1 (UNIVERSITY OF TOKYO, published 2026).

The target in this experiment is T1, HA-tagged Fluc-DM (Fluc-HA-DM) (firefly, UniProt P08659 1-550 = luciferase).
T1 construct: Model misfolded (structurally abnormal) protein, co-expressed in HeLa cells; Derived from the Addgene plasmid FlucDM-HA-GFP11-N1; also called R188Q/R261Q double mutant of firefly luciferase; aggregated mutant luciferase; not shown: HA tag
Kind of experiment: co-immunoprecipitation with anti-FLAG M2 gel from HeLa lysates, immunoblot. For orientation: Immunoblotting shows a protein as a band on a membrane.

B1: FLAG-LONRF2-LonSBm (P5A) (enzyme)
chain: MSPEPVPPPPPPQCPGCDRAEPIAQRLEEGDEAFRAGDYEMAAELFRSMLAGLAQPDRGLCLRLGDALARAGRLPEALGAFRGAARLGALRPEELEELAGGLVRAVGLRDRPLSAENPGGEPEAPGEGGPAPEPRAPRDLLGCPRCRRLLHKPVTLPCGLTVCKRCVEPGPARPQVRRVNVVLSGLLEKCFPAECRLRRLAGQARSLQRQQQPEAALLRCDQALELAPDDNSLLLLRAELYLTMKNYEQALQDASAACQNEPLLIKGHQVKAQALSGLGRSKEVLKEFLYCLALNPECNSVKKEAQKVMCEVLFSATANVHENLTSSIQSRLKAQGHSHMNAQALLEEGDAGSSENSSEKSDMLGNTNSSVLYFILGLHFEEDKKALESILPTAPSAGLKRQFPDDVEDAPDLNAPGKIPKKDLSLQRSPNSETEESQGLSLDVTDFECALCMRLLFEPVTTPCGHTFCLKCLERCLDHAPHCPLCKDKLSELLASRNFNITVLAEELIFRYLPDELSDRKRIYDEEMSELSNLTRDVAIFVCAMAFATVPCALHVFEPRYRLMIRRCMETGTKRFGMCLSAEHAGLSEYGCMLEIKDVRTFADGSSVVDAIGISRFRVLSHRHRDGYNTADIEYLEDEKVEGPEYEELAALHDSVHQQSVSWFASLQDRMKEQILSHFGVMPDREPEPQSNPSGPAWSWWILAVLALERKAQLAILGMTSLKERLLAIRRILVIITRKMNSRQELANARERNN
notes: not shown: FLAG tag
B1: the binding result was “no binding”.
